In patent publication US20050063985A1 (MCW RESEARCH FOUNDATION, published 2005):

Biological target: T1, glutathione S transferase (pGEX-4T-2 vector control lysate) (UniProt P08515 1-218 = GST)
T1 construct: In a bacterial lysate; also called GST; Control bacterial lysates encoding only glutathione S transferase
Test: Western or dot blot, bacterial lysate

T1 sequence (P08515 whole entry): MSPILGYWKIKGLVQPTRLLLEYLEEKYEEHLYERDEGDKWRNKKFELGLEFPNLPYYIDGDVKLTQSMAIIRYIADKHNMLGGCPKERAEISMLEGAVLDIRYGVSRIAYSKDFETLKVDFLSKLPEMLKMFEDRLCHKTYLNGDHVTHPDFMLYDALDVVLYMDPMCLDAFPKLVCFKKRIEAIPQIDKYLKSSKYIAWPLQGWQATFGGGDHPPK

B1: monoclonal antibody mab 166 (antibody, V domains shown)
VH: QVQLKQSGPGLVQPSQSLSITCTVSGFSLTSYGVHWVRQSPGKGLEWLGVIWSGGDTDYNAAFISRLSISKDNSKSQLFFKMNSLRATDTAIYYCARNRGDIYYDFTYAMDYWGQGTSVTVSS
VL: DIQMTQSPASLSASVGETVTITCRASGNIQNYLAWYQQTQGKSPQLLVYSAKTLADGVPSRFSGSGSGTQYSLKINSLQPEDFGSYYCQHFWSTPYTFGGGTKLEIKR
notes: also called mabl66; m166
  binding result: no binding
